Test results reported in patent US20150344570A1 (published 2015).

T1: FcγRIIb (human, UniProt P31994 43-217)
T1 construct: extracellular domain; also called FcgRIIb; 2b
T1 sequence (looked up): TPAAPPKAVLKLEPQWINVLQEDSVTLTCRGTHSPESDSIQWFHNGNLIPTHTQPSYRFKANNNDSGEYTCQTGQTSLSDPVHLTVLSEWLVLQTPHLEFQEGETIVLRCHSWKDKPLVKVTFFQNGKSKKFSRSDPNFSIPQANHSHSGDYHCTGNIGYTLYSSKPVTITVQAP

T2: FcγRIIa H (human, UniProt P12318 34-217)
T2 construct: extracellular domain; also called FcgRIIa H; FcγRIIa type H
T2 sequence (looked up): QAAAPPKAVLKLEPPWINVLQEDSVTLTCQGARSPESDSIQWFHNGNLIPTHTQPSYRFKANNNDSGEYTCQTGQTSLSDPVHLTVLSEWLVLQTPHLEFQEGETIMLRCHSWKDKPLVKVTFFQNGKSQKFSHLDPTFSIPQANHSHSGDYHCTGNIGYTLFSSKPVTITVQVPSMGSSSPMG

B1: GpH7-A5/GpH7-B3 variant P238_15Y/GpL16-k0 (antibody, human IgG1, kappa)
heavy 1: not shown
heavy 2: not shown
light: DIVMTQSPLSLPVTPGEPASISCQASESLVHSNRNTYLHWYLQKPGQSPQLLIYKVSNRFSGVPDRFSGSGSGTDFTLKISRVEAEDVGVYYCSQNTHVPPTFGQGTKVEIERTVAAPSVFIFPPSDEQLKSGTASVVCLLNNFYPREAKVQWKVDNALQSGNSQESVTEQDSKDSTYSLSSTLTLSKADYEKHKVYACEVTHQGLSSPVTKSFNRGEC
notes: Heterodimerized antibody, alteration in one H chain only; also called He Ab P238Y
B2: GpH7-A5/GpH7-B3 variant P238_16H/GpL16-k0 (antibody, human IgG1, kappa)
heavy 1: not shown
heavy 2: not shown
light: B1 light
notes: Heterodimerized antibody, alteration in one H chain only; also called He Ab P238H
B3: GpH7-A5/GpH7-B3 variant P238_19Q/GpL16-k0 (antibody, human IgG1, kappa)
heavy 1: not shown
heavy 2: not shown
light: B1 light
notes: Heterodimerized antibody, alteration in one H chain only; also called He Ab P238Q
B4: GpH7-A5/GpH7-B3 variant P238_20W/GpL16-k0 (antibody, human IgG1, kappa)
heavy 1: not shown
heavy 2: not shown
light: B1 light
notes: Heterodimerized antibody, alteration in one H chain only; also called He Ab P238W
B5: GpH7-A5/GpH7-B3 variant P271_08L/GpL16-k0 (antibody, human IgG1, kappa)
heavy 1: not shown
heavy 2: not shown
light: B1 light
notes: Heterodimerized antibody, alteration in one H chain only; also called He Ab P271L
B6: GpH7-A5/GpH7-B3 variant P271_09D/GpL16-k0 (antibody, human IgG1, kappa)
heavy 1: not shown
heavy 2: not shown
light: B1 light
notes: Heterodimerized antibody, alteration in one H chain only; also called He Ab P271D
B7: GpH7-A5/GpH7-B3 variant P271_10E/GpL16-k0 (antibody, human IgG1, kappa)
heavy 1: not shown
heavy 2: not shown
light: B1 light
notes: Heterodimerized antibody, alteration in one H chain only; also called He Ab P271E
B8: GpH7-A5/GpH7-B3 variant S239_01G/GpL16-k0 (antibody, human IgG1, kappa)
heavy 1: not shown
heavy 2: not shown
light: B1 light
notes: Heterodimerized antibody, alteration in one H chain only; also called He Ab S239G
B9: GpH7-A5/GpH7-B3 variant S239_03V/GpL16-k0 (antibody, human IgG1, kappa)
heavy 1: not shown
heavy 2: not shown
light: B1 light
notes: Heterodimerized antibody, alteration in one H chain only; also called He Ab S239V
B10: GpH7-A5/GpH7-B3 variant S239_05P/GpL16-k0 (antibody, human IgG1, kappa)
heavy 1: not shown
heavy 2: not shown
light: B1 light
notes: Heterodimerized antibody, alteration in one H chain only; also called He Ab S239P
B11: GpH7-A5/GpH7-B3 variant S239_06M/GpL16-k0 (antibody, human IgG1, kappa)
heavy 1: not shown
heavy 2: not shown
light: B1 light
notes: Heterodimerized antibody, alteration in one H chain only; also called He Ab S239M
B12: GpH7-A5/GpH7-B3 variant S239_07I/GpL16-k0 (antibody, human IgG1, kappa)
heavy 1: not shown
heavy 2: not shown
light: B1 light
notes: Heterodimerized antibody, alteration in one H chain only; also called He Ab S239I
B13: GpH7-A5/GpH7-B3 variant S239_18N/GpL16-k0 (antibody, human IgG1, kappa)
heavy 1: not shown
heavy 2: not shown
light: B1 light
notes: Heterodimerized antibody, alteration in one H chain only; also called He Ab S239N
B14: GpH7-A5/GpH7-B3 variant S267_01G/GpL16-k0 (antibody, human IgG1, kappa)
heavy 1: not shown
heavy 2: not shown
light: B1 light
notes: Heterodimerized antibody, alteration in one H chain only; also called He Ab S267G
B15: GpH7-A5/GpH7-B3 variant S267_03V/GpL16-k0 (antibody, human IgG1, kappa)
heavy 1: not shown
heavy 2: not shown
light: B1 light
notes: Heterodimerized antibody, alteration in one H chain only; also called He Ab S267V
B16: GpH7-A5/GpH7-B3 variant S267_06M/GpL16-k0 (antibody, human IgG1, kappa)
heavy 1: not shown
heavy 2: not shown
light: B1 light
notes: Heterodimerized antibody, alteration in one H chain only; also called He Ab S267M
B17: GpH7-A5/GpH7-B3 variant S267_07I/GpL16-k0 (antibody, human IgG1, kappa)
heavy 1: not shown
heavy 2: not shown
light: B1 light
notes: Heterodimerized antibody, alteration in one H chain only; also called He Ab S267I
B18: GpH7-A5/GpH7-B3 variant S267_08L/GpL16-k0 (antibody, human IgG1, kappa)
heavy 1: not shown
heavy 2: not shown
light: B1 light
notes: Heterodimerized antibody, alteration in one H chain only; also called He Ab S267L
B19: GpH7-A5/GpH7-B3 variant S267_14T/GpL16-k0 (antibody, human IgG1, kappa)
heavy 1: not shown
heavy 2: not shown
light: B1 light
notes: Heterodimerized antibody, alteration in one H chain only; also called He Ab S267T
B20: GpH7-A5/GpH7-B3 variant S267_19Q/GpL16-k0 (antibody, human IgG1, kappa)
heavy 1: not shown
heavy 2: not shown
light: B1 light
notes: Heterodimerized antibody, alteration in one H chain only; also called He Ab S267Q
B21: GpH7-A5/GpH7-B3 variant S298_06M/GpL16-k0 (antibody, human IgG1, kappa)
heavy 1: not shown
heavy 2: not shown
light: B1 light
notes: Heterodimerized antibody, alteration in one H chain only; also called He Ab S298M
B22: GpH7-A5/GpH7-B3 variant S298_08L/GpL16-k0 (antibody, human IgG1, kappa)
heavy 1: not shown
heavy 2: not shown
light: B1 light
notes: Heterodimerized antibody, alteration in one H chain only; also called He Ab S298L
B23: GpH7-A5/GpH7-B3 variant V266_06M/GpL16-k0 (antibody, human IgG1, kappa)
heavy 1: not shown
heavy 2: not shown
light: B1 light
notes: Heterodimerized antibody, alteration in one H chain only; also called He Ab V266M
B24: GpH7-A5/GpH7-B3 variant Y296_20W/GpL16-k0 (antibody, human IgG1, kappa)
heavy 1: not shown
heavy 2: not shown
light: B1 light
notes: Heterodimerized antibody, alteration in one H chain only; also called He Ab Y296W

Biological target: T1, FcγRIIb
Test: SPR (Biacore), antibody captured, FcγR analyte; binding relative to GpH7-A5/GpH7-B3/GpL16-k0 = 100

Row | Binder | He/Con_2b
1 | B1 | 218 % of control
2 | B2 | 115 % of control
3 | B3 | 110 % of control
4 | B4 | 123 % of control
5 | B5 | 103 % of control
6 | B6 | 120 % of control
7 | B7 | 109 % of control
8 | B8 | 144 % of control
9 | B9 | 108 % of control
10 | B10 | 102 % of control
11 | B11 | 101 % of control
12 | B12 | 107 % of control
13 | B13 | 119 % of control
14 | B14 | 105 % of control
15 | B15 | 192 % of control
16 | B16 | 210 % of control
17 | B17 | 192 % of control
18 | B18 | 109 % of control
19 | B19 | 104 % of control
20 | B20 | 218 % of control
21 | B21 | 102 % of control
22 | B22 | 108 % of control
23 | B23 | 251 % of control
24 | B24 | 103 % of control

Biological target: T2, FcγRIIa H
Test: as above

Row | Binder | He/Con_2aH
25 | B1 | 59.8 % of control
26 | B2 | 45.9 % of control
27 | B3 | 56.4 % of control
28 | B4 | 59.5 % of control
29 | B5 | 86.7 % of control
30 | B6 | 70.1 % of control
31 | B7 | 63.1 % of control
32 | B8 | 97 % of control
33 | B9 | 91 % of control
34 | B10 | 33.3 % of control
35 | B11 | 98.6 % of control
36 | B12 | 91.5 % of control
37 | B13 | 94.2 % of control
38 | B14 | 71.3 % of control
39 | B15 | 50.8 % of control
40 | B16 | 34.3 % of control
41 | B17 | 34.7 % of control
42 | B18 | 29 % of control
43 | B19 | 63.3 % of control
44 | B20 | 61.3 % of control
45 | B21 | 98.1 % of control
46 | B22 | 85 % of control
47 | B23 | 83.9 % of control
48 | B24 | 97.6 % of control
